What was measured:
[1] = target: human PTPRZ1 extracellular portion (domains 1 plus 2) knocked in and shown on Ge518_PTPRZ1-KI cells (human) (UniProt P23471); test: cell-based or functional assay
[2] = target: T1, human PTPRZ1 extracellular portion (domains 1 plus 2) knocked in and shown on Ge518_PTPRZ1-KI cells (human, UniProt P23471 25-413, limits assumed); test: flow cytometry on Ge518_PTPRZ1-KI cells, scFv conjugated to rabbit Fc, anti-rabbit IgG AlexaFluo488
T1 construct: domain: extracellular portion (domains 1 plus 2); parental Ge518 has low PTPRZ1 expression; also called receptor-type tyrosine-protein phosphatase zeta
Text: The GBM cell line Ge518, obtained in our lab from a patient tumor resection, was used as a tumor model to evaluate CAR T cell efficacy. As PTPRZ1 expression was low in these cells, the antigen was overexpressed by introducing (knock-in) an extracellular portion (domains 1 plus 2) of the human PTPRZ1 molecule under the EF1a promoter, using a 3rd generation LV vector with puromycin selection.

T1 sequence (P23471 25-413 limits assumed): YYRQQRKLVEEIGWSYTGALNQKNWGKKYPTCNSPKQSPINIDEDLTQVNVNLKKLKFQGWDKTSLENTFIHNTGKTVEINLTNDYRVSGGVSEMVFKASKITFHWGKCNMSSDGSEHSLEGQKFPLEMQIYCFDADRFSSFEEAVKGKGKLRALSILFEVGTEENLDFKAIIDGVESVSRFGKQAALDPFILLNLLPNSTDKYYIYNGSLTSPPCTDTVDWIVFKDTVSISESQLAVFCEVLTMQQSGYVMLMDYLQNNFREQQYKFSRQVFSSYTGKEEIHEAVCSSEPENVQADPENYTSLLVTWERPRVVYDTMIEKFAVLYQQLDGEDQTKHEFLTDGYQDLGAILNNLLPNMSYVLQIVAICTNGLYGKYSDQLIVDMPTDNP
human PTPRZ1 extracellular portion (domains 1 plus 2) knocked in and shown on Ge518_PTPRZ1-KI cells (human), sequence (P23471 25-413 limits assumed): as above

B1: anti-PTPRZ1 471_28z chimeric antigen receptor (on RNA CAR T cells) (protein, part only; not given: CD3zeta signalling domain, part only)
chain, part: MAEVQLVESGGGLVQPGGSLRLSCAASGFTFSSYSMNWVRQAPGKGLEWVSYISSSSSTIYYADSVKGRFTISRDNAKNSLYLQMNSLRAEDTAVYYCARPGYGDFPGAFDIWGQGTLVTVSSGGGGSGGGGSGGGGSTQSALTQPASVSGSPGQSITISCTGTSSDVGGYNYVSWYQQHPGKAPKLMIYEVSNRPSGVSNRFSGSKSGNTASLTISGLQAEDEADYYCSSYDWATYGSVFGGGTKLTVLGAAESKYGPPCPPCPFWVLVVVGGVLACYSLLVTVAFIIFWVRSKRSRGGHSDYMNMTPRRPGPTRKHYQPYAPPRDFAAYRS
- killing of Ge518 PTPRZ1-KI target cells by CAR T cells, E:T 3:1 [1]: 80%

B2: anti-PTPRZ1 scFv RRB473 conjugated to a rabbit Fc (Fc fusion)
scFv: MAQVQLVESGGGVVQPGRSLRLSCAASGFTFSSYAMHWVRQAPGKGLEWVAVISYDGSNKYYADSVKGRFTISRDNSKNTLYLQMNSLRAEDTAVYYCARDQDDSSDAFDIWGQGTLVTVSSGGGGSGGGGSGGGGSTQSVLTQPPSVSAAPGQKVTISCSGSSSNIGNNYVSWYQQLPGTAPKLLIYDNNKRPSGIPDRFSGSKSGTSATLGITGLQTGDEADYYCGTYDYIATRAVFGGGTKLTVLGAA
notes: scFv conjugated to a rabbit Fc for flow cytometry; also called scFv 473; not shown: rabbit Fc
- level of recognition (percent, flow cytometry) [2]: ≥ 80%

B3: anti-PTPRZ1 scFv RRB476 conjugated to a rabbit Fc (Fc fusion)
scFv: MAQVQLVESGGGVVQPGRSLRLSCAASGFTFSSYAMHWVRQAPGKGLEWVAVISYDGSNKYYADSVKGRFTISRDNSKNTLYLQMNSLRAEDTAVYYCARDQDDSSDAFDIWGQGTLVTVSSGGGGSGGGGSGGGGSTQSVLTQPPSVSAAPGQKVTISCSGSSSNIGNNYVSWYQQLPGTAPKLLIYDNNKRPSGIPDRFSGSKSGTSATLGITGLQTGDEADYYCGTWDYKVSRLVFGGGTKLTVLGAA
notes: scFv conjugated to a rabbit Fc for flow cytometry; also called scFv 476; not shown: rabbit Fc
- level of recognition (percent, flow cytometry) [2]: ≥ 80%

B4: anti-PTPRZ1 scFv RRB471 conjugated to a rabbit Fc (Fc fusion)
scFv: MAEVQLVESGGGLVQPGGSLRLSCAASGFTFSSYSMNWVRQAPGKGLEWVSYISSSSSTIYYADSVKGRFTISRDNAKNSLYLQMNSLRAEDTAVYYCARPGYGDFPGAFDIWGQGTLVTVSSGGGGSGGGGSGGGGSTQSALTQPASVSGSPGQSITISCTGTSSDVGGYNYVSWYQQHPGKAPKLMIYEVSNRPSGVSNRFSGSKSGNTASLTISGLQAEDEADYYCSSYDWATYGSVFGGGTKLTVLGAA
notes: scFv conjugated to a rabbit Fc for flow cytometry; not shown: rabbit Fc
- level of recognition (percent, flow cytometry) [2]: ≥ 80%

B5: anti-PTPRZ1 scFv RRB469 conjugated to a rabbit Fc (Fc fusion)
scFv: MAQVQLVESGGGVVQPGRSLRLSCAASGFTFSSYAMHWVRQAPGKGLEWVAVISYDGSNKYYADSVKGRFTISRDNSKNTLYLQMNSLRAEDTAVYYCARGSGYSYGPGYDAFDIWGQGTLVTVSSGGGGSGGGGSGGGGSTNFMLTQPHSVSESPGKTVTISCTRSSGSIASNYVQWYQQRPGSSPTTVIYEDNQRPSGVPDRFSGSIDSSSNSASLTISGLKTEDEADYYCQSWDPVFGVFGGGTKLTVLGAA
notes: Flow cytometry was done with the scFvs conjugated to a rabbit Fc, detected with anti-rabbit IgG AlexaFluo488; also called scFv 469; not shown: rabbit Fc
- level of recognition (percent, flow cytometry) [2]: ≥ 80%

Reference: patent US20260201068A1 (UNIVERSIT DE GEN VE, published 2026)
